± gives the standard deviation of the averaged measurements.

This series deals with ATP. Briefly: switch fluorescence ratio, 500 uM ATP over buffer (Cy3 cluster intensity, sum of 5 cycles each) (fold (ratio)); higher = stronger signal-on switching upon ATP binding; sequences stand for … in TCGTCGGCAGCGTCAGATGTGTATAAGAGACAGTTTTTTTTTTTTTTTTTTTTTTTTT…TC. The following applies: aptamer strand: ATP DNA aptamer (quencher-CACCTGGGGGAGTATTGCGGAGGAAGG + anchor), 100 nM annealed; ATP concentration: 500 uM. In a few lines:
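After annealing to 100 nM quencher-labelled ATP aptamer, Cy3-labelled switching-strand clusters on a modified Illumina MiSeq flow-cell were imaged in selection buffer. A second image followed after 15 min with 500 uM ATP at 22 °C, and five such buffer/ATP cycles were done, each separated by NaOH stripping and re-annealing. The fluorescence ratio, averaged per switch-domain sequence, is summed target-cycle over summed buffer-cycle Cy3 intensity per cluster, with clusters outside 100-1000 RFU excluded.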
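Further: ATP exposure 15 min at 22 °C before imaging.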

Consider AAGTGGCATG, for which the switch fluorescence ratio is 0.974 ± 0.022. Turning to AAGTGGTATT, the switch fluorescence ratio worked out at 0.992 ± 0.029. To AAGTGGTCCT belongs 0.996 ± 0.018. As for AAGTGGTGGG, the switch fluorescence ratio was 0.985 ± 0.024. To AAGTGGTGGT belongs 0.989 ± 0.011. The same measure for AAGTGTGACT: 1 ± 0.019.

In the case of AAGTGTGGGC, the switch fluorescence ratio was determined as 0.984 ± 0.023. In the case of AAGTGTTGTC, the switch fluorescence ratio turned out to be 1.1 ± 0.033. The same measure for AAGTTAATTC: 1.013 ± 0.0081; for AAGTTAGTTT: 0.966 ± 0.043; for AAGTTATCTG: 1.03 ± 0.027. The same measure for AAGTTATGTA: 1.01 ± 0.031. The same measure for AAGTTATTGT: 1.21 ± 0.33. With AAGTTCAAGA, the switch fluorescence ratio was 0.99 ± 0.045.

As to AAGTTCCGAG, the switch fluorescence ratio worked out at 1.18 ± 0.045.

Turning to AAGTTCGGG, the switch fluorescence ratio came to 1.035 ± 0.0057. To AAGTTCGGGA belongs 1 ± 0.029.

AAGTTCGGTG: the switch fluorescence ratio was 0.9695 ± 0.0027.

In the case of AAGTTCGTTG, the switch fluorescence ratio was found to be 1.01 ± 0.036. To AAGTTGATGT belongs 1 ± 0.017; to AAGTTGCTAG, 0.9976 ± 0.0048; to AAGTTGGAGG, 0.9797 ± 0.0024. To AAGTTGGCGC belongs 1.01 ± 0.037.

Take AAGTTGGGG: the switch fluorescence ratio turned out to be 0.99 ± 0.039. The same measure for AAGTTGGGT: 0.95 ± 0.017; for AAGTTGGGTA: 0.978 ± 0.024; for AAGTTGTGCT: 0.972 ± 0.014. For the sequence AAGTTGTGGC, the switch fluorescence ratio was determined as 1.01 ± 0.017. As to AAGTTGTGGT, the switch fluorescence ratio worked out at 1.01 ± 0.023. The same measure for AAGTTTAGTA: 1.01 ± 0.029; for AAGTTTATCA: 1.003 ± 0.0032; for AAGTTTGGGA: 1.07 ± 0.091. The same measure for AAGTTTGGGG: 0.983 ± 0.043. To AAGTTTGTTG belongs 0.986 ± 0.023.

Consider AAGTTTTAAA, for which the switch fluorescence ratio is 0.968 ± 0.013.

Turning to AAGTTTTATT, the switch fluorescence ratio was determined as 0.992 ± 0.043.

Turning to AAGTTTTCGG, the switch fluorescence ratio was determined as 0.989 ± 0.052. The same measure for AAGTTTTGAG: 1.03 ± 0.019; for AAGTTTTGTA: 0.985 ± 0.05. Take AAGTTTTTCC: the switch fluorescence ratio amounted to 1.04 ± 0.021.

As for AAGTTTTTTC, the switch fluorescence ratio amounted to 1.012 ± 0.0053. To AATAAAAATG belongs 1.02 ± 0.027. The same measure for AATAAACGCT: 1.04 ± 0.074; for AATAAAGGGG: 1.19 ± 0.25; for AATAAATCCT: 1.22 ± 0.021. The same measure for AATAAATTGA: 1.02 ± 0.04; for AATAACTCCG: 1.224 ± 0.008. For the sequence AATAAGAAAT, the switch fluorescence ratio stood at 0.994 ± 0.015.

For the sequence AATAATCAAA, the switch fluorescence ratio was 1.01 ± 0.006.

Take AATACAAGGC: the switch fluorescence ratio was determined as 1.076 ± 0.006.

Take AATACCAAAT: the switch fluorescence ratio amounted to 0.999 ± 0.049. As for AATACCGGCA, the switch fluorescence ratio came out at 1.04 ± 0.045. Consider AATACCTTTC, for which the switch fluorescence ratio was 2.3 ± 0.14.

In the case of AATACGGGG, the switch fluorescence ratio is 0.985 ± 0.016. To AATACGGGGG belongs 1.03 ± 0.13; to AATAGAACTT, 1.02 ± 0.061; to AATAGAGGAT, 0.971 ± 0.039. The same measure for AATAGATATG: 1.01 ± 0.0018; for AATAGCATTG: 0.972 ± 0.029. To AATAGCGACT belongs 1.026 ± 0.0052; to AATAGGACAA, 0.982 ± 0.037. With AATAGGATAG, the switch fluorescence ratio was determined as 1.02 ± 0.011. The same measure for AATAGGCACC: 0.993 ± 0.018; for AATAGGCATG: 0.979 ± 0.0098; for AATAGGCGCG: 1.02 ± 0.014.

Take AATAGGGTCG: the switch fluorescence ratio came to 0.975 ± 0.064. The same measure for AATAGGTTGT: 0.992 ± 0.015. The same measure for AATAGTGCCC: 0.999 ± 0.053; for AATAGTGGTA: 1 ± 0.029. To AATAGTGTCC belongs 1.01 ± 0.032. On to AATAGTTATT, for which the switch fluorescence ratio was 0.9791 ± 0.003. The same measure for AATATAAAGG: 1 ± 0.031; for AATATACGT: 1.05 ± 0.032; for AATATAGGAA: 1.016 ± 0.0092.

Turning to AATATATCGC, the switch fluorescence ratio was 0.977 ± 0.018. To AATATCGGGT belongs 0.97 ± 0.019. To AATATCTGTT belongs 0.997 ± 0.019. To AATATCTTGC belongs 1.05 ± 0.028. As to AATATGAAGG, the switch fluorescence ratio was 1 ± 0.019.

The values are drawn from the supplement of paper PMC10126150.
